Columns and labels:
rat GLP-1-R (rat) = rat GLP-1-R (rat) (UniProt P32301); assay: cell-based or functional assay
[1] = target: human Gcg receptor (human) (UniProt P47871); assay: cell-based or functional assay
Sequence of human Gcg receptor (human) (P47871 26-477): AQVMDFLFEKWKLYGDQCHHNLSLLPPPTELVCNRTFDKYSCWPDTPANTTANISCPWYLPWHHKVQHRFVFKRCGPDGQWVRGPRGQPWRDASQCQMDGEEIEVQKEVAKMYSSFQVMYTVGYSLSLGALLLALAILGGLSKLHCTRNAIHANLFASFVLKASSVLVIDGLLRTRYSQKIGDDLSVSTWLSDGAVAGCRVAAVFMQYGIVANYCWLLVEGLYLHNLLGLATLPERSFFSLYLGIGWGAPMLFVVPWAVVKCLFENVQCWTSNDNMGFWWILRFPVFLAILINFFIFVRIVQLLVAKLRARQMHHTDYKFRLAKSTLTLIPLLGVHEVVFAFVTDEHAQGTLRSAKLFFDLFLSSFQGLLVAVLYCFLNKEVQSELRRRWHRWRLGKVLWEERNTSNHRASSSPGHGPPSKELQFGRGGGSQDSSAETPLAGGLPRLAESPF

Sequence of Wild type human OXM (ligand) (peptide): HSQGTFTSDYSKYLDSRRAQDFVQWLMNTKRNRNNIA

Q: Which Emax (%), cAMP production in INS1 832-3 cells (rat GLP-1-R (rat)) does the source give for Semaglutide (peptide) here?
A: The Emax (%), cAMP production in INS1 832-3 cells was 107%.

Q: How did the Emax (%), cAMP production in primary human hepatocytes [1] turn out when Wild type human OXM (ligand) was run?
A: Its Emax (%), cAMP production in primary human hepatocytes is 90%.
